# Test results published in PMC4678016.
# Target: capping protein (CP), purified, as used in pyrene-actin polymerization assays
# Assay: pyrene-actin seeded polymerization assay
substance,measurement,value
"CARMIL2-CBR (CP-binding region of human CARMIL2b, Pro-961 to Arg-1072) (from UniProt Q6F5E8-2 961-1072) (domain or fragment)",Kd,2.9 nM
